# Experimental data as given in patent publication US20220177584A1 (Janssen / Centocor, published 2022).
# B1: talquetamab (bispecific antibody, human IgG4 S228P, lambda, F234A L235A)
# heavy 1: not shown
# light 1: DIQMTQSPSSLSASVGDRVTITCKASQNVATHVGWYQQKPGKAPKRLIYSASYRYSGVPSRFSGSGSGTEFTLTISNLQPEDFATYYCQQYNRYPYTFGQGTKLEIKKAAPSVTLFPPSSEELQANKATLVCLISDFYPGAVTVAWKGDSSPVKAGVETTTPSKQSNNKYAASSYLSLTPEQWKSHRSYSCQVTHEGSTVEKTVAPTECS
# heavy 2: EVQLVESGGGLVQPGGSLRLSCAASGFTFNTYAMNWVRQAPGKGLEWVARIRSKYNNYATYYAASVKGRFTISRDDSKNSLYLQMNSLKTEDTAVYYCARHGNFGNSYVSWFAYWGQGTLVTVSSASTKGPSVFPLAPCSRSTSESTAALGCLVKDYFPEPVTVSWNSGALTSGVHTFPAVLQSSGLYSLSSVVTVPSSSLGTKTYTCNVDHKPSNTKVDKRVESKYGPPCPPCPAPEAAGGPSVFLFPPKPKDTLMISRTPEVTCVVVDVSQEDPEVQFNWYVDGVEVHNAKTKPREEQFNSTYRVVSVLTVLHQDWLNGKEYKCKVSNKGLPSSIEKTISKAKGQPREPQVYTLPPSQEEMTKNQVSLTCLVKGFYPSDIAVEWESNGQPENNYKTTPPVLDSDGSFLLYSKLTVDKSRWQEGNVFSCSVMHEALHNHYTQKSLSLSLGK
# light 2: QTVVTQEPSLTVSPGGTVTLTCRSSTGAVTTSNYANWVQQKPGQAPRGLIGGTNKRAPGTPARFSGSLLGGKAALTLSGVQPEDEAEYYCALWYSNLWVFGGGTKLTVLGQPKAAPSVTLFPPSSEELQANKATLVCLISDFYPGAVTVAWKADSSPVKAGVETTTPSKQSNNKYAASSYLSLTPEQWKSHRSYSCQVTHEGSTVEKTVAPTECS
# Target: cynomolgus monkey GPRC5D (cynomolgus monkey)
# Experiment: cell-based or functional assay
binder,measurement,value
B1,"in vivo pharmacological activity, cynomolgus monkey against human",~100 fold lower
